Data reported in paper PMC6856053 (Frontiers in Neuroscience, 2019).
Numbering of substitutions follows the chain as printed.

How the values were obtained:
Test in all cases: pull-down; GST-MIT domain (bait) and myc-6His MIM (prey), 2 nmole each, on 20 ul glutathione sepharose in 1 ml PBS + 0.1% NP-40 + 1 mM DTT, overnight 4 C; Coomassie and anti-myc blot
Settings in all cases: both partners purified
[1] = biological target: T1, GST fused to the spastin MIT domain (residues 110-199) L195V (human, UniProt Q9UBP0 110-199, L195V)
T1 construct: spastin, residues 110-199 holding the MIT domain; patient mutation; Cloned into the BamHI-XhoI sites of pGEX-4T2; source: E. coli BL21(DE3)pLysS, purified (GST sepharose, eluted with 10 mM glutathione)
T1 sequence (looked up): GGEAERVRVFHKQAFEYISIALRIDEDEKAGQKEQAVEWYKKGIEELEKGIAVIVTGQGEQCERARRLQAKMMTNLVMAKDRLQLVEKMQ

[2] = biological target: T2, GST fused to the wild-type spastin MIT domain (residues 110-199) (human, UniProt Q9UBP0 110-199)
T2 construct: spastin, residues 110-199 holding the MIT domain; Cloned into the BamHI-XhoI sites of pGEX-4T2; also called WT; source: E. coli BL21(DE3)pLysS, purified (GST sepharose, eluted with 10 mM glutathione)
T2 sequence (looked up): T1 sequence (looked up) with V86L

[3] = biological target: T3, GST fused to the spastin MIT domain (residues 110-199) V162I (human, UniProt Q9UBP0 110-199, V162I)
T3 construct: spastin, residues 110-199 holding the MIT domain; benign polymorphism; Cloned into the BamHI-XhoI sites of pGEX-4T2; also called MIT containing the benign polymorphism V162I; source: E. coli BL21(DE3)pLysS, purified (GST sepharose, eluted with 10 mM glutathione)
T3 sequence (looked up): T1 sequence (looked up) with V53I, V86L

[4] = biological target: T4, GST fused to the spastin MIT domain (residues 110-199) E112K (human, UniProt Q9UBP0 110-199, E112K)
T4 construct: spastin, residues 110-199 holding the MIT domain; patient mutation; Cloned into the BamHI-XhoI sites of pGEX-4T2; source: E. coli BL21(DE3)pLysS, purified (GST sepharose, eluted with 10 mM glutathione)
T4 sequence (looked up): T1 sequence (looked up) with E3K, V86L

[5] = biological target: T5, GST fused to the spastin MIT domain (residues 110-199) N184T (human, UniProt Q9UBP0 110-199, N184T)
T5 construct: spastin, residues 110-199 holding the MIT domain; patient mutation; Cloned into the BamHI-XhoI sites of pGEX-4T2; source: E. coli BL21(DE3)pLysS, purified (GST sepharose, eluted with 10 mM glutathione)
T5 sequence (looked up): T1 sequence (looked up) with N75T, V86L

[6] = biological target: T6, GST fused to the spastin MIT domain (residues 110-199) R115C (human, UniProt Q9UBP0 110-199, R115C)
T6 construct: spastin, residues 110-199 holding the MIT domain; patient mutation (SPAST c.343C>T); Cloned into the BamHI-XhoI sites of pGEX-4T2; source: E. coli BL21(DE3)pLysS, purified (GST sepharose, eluted with 10 mM glutathione)
T6 sequence (looked up): T1 sequence (looked up) with R6C, V86L

Measured: binding result

B1: single MIM of CHMP1B, residues 174-199, myc- and 6His-tagged (domain or fragment, UniProt Q7LBR1 174-199, looked up)
chain: GSVGTSVASAEQDELSQRLARLRDQV
notes: CHMP1B, residues 174-199 holding the single MIM; Cloned into the BamHI-NotI sites of pGEX-6P-1; also called CHMP1B MIM; CHMP1B (amino acids 174-199); source: E. coli BL21(DE3)pLysS, purified (GST sepharose, GST removed with Prescission protease)
binds: all assays above
